From EP2319871A1 (Sanofi-Aventis, dated 2011) come the findings set out here.

“And” between values parts separate entries of the source, which are not always exact repeats. Equal values may be shown once. Where only a bound is given, the exact number is not on record here.

The target of assay [1] is T1, sRAGE (V-C1-C2) lot LP08062 (human, UniProt Q15109 23-342).
T1 construct: extracellular domain; also called Human RAGE; LP08062 (Rage)
Nature of the assay: SPR (Biacore), mAb captured on anti-mouse Fc, sRAGE 15 nM, 1:1 Langmuir.

Assay [2] concerns the target T2, RAGE-Fc (human, UniProt Q15109 23-342, limits assumed).
T2 construct: Format stated for the S100A12 and S100A6 ELISAs; also called hRAGE; not shown: Fc part, detected with anti-hIgG Fc-specific-POD
Put plainly: competition ELISA, RAGE-Fc 10 µg/mL + diluted mAb on coated S100A6 (competitor S100A6).

Assay [3] deals with T2, RAGE-Fc. Nature of the assay: competition ELISA, RAGE-S100A6 interaction (competitor S100A6).
The target in a further assay is RAGE-Fc (human) (UniProt Q15109). Nature of the assay: competition ELISA, mAb 10 µg/mL + RAGE-Fc 10 µg/mL on coated S100A6 (competitor S100A6).
RAGE-Fc (human), sequence (Q15109 23-342 limits assumed): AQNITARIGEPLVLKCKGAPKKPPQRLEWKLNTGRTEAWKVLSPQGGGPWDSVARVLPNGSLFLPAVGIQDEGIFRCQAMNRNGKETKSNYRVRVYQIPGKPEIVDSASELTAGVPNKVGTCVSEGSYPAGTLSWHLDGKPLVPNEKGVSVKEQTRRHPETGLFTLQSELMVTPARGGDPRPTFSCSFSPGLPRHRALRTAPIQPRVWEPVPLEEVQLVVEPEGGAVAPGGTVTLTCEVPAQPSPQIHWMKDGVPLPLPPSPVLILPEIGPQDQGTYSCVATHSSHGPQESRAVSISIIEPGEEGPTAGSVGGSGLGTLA

T1 sequence (Q15109 23-342): as the sequence (Q15109 23-342 limits assumed) above
T2 sequence (Q15109 23-342 limits assumed): as above

B1: 56 RAGE-1 (antibody, V domains shown)
VH: QVQLQQSGPELVKPGASVRISCKASGYTFTSYFIHWVKQRPGQGLEWIGWIYPGNVNTKYNEKFKDKATLTADKSSSTAYMQLSNLTSEDSAVYFCVRGQLGDYWGQGITLTVSS
VL: DIVMTQSQKFMSTSVGDRVSVTCKASQNVGINVAWYQQKPGQSPKALIYSASYRYSGVPDRFTGSGSGTDFTLIISNVQSEDLAEYFCQQYNNYPRTFGGGTKLEIK
notes: Hybridoma monoclonal antibody, captured on anti-mouse Fc in Biacore; also called LP08103; Protein 56 RAGE-1
In assay [1], B1 had a Kd of 1.87 nM, a koff of 0.00539 s⁻¹ and a kon of 2.89e+06 M⁻¹ s⁻¹. The IC50 with RAGE-Fc [2] is 1.16 µg/mL and 7.73 nM. The molecule also displayed an IC50 with RAGE-Fc [3] of 7.7 nM.

B2: 152 RAGE-1 (antibody, V domains shown)
VH: DVQLQESGPDLVKPSQSLSLTCTVTGYSITSGYSWHWIRQFPGNKLEWMGYIHYSGSTNYNPSLKSRISITRDTSKNQFFLQLNSVTTEDTATYYCARGGDFAYWGQGTLVTVSA
VL: DIVLTQSPASLAVSLGQRATISCRASKSVGTSDSSYMHWYQQKPGQPPKLLIYLASNLESGVPARFSGSGSGTDFTLNIHPVEEEDAATYYCQHSRELYTFGGGTKLEIK
notes: Hybridoma monoclonal antibody, captured on anti-mouse Fc in Biacore; also called LP08104; Protein 152 RAGE-1
As to B2, in assay [1], the Kd was 0.687 nM, the koff is 0.00265 s⁻¹ and the on-rate (kon) was 3.86e+06 M⁻¹ s⁻¹. For the same molecule, the inhibitory effect in the assay with RAGE-Fc (human) is over 20%.

B3: 130 RAGE-1 (antibody, V domains shown)
VH: EVQLVESGGGLVKPGGSLKLSCAASGFTFSSYVMSWVRQSPEKRLEWVAEISSGGSYTYYPDTVTGRFTISRDNDKNTLYLEMSSLRSEDTAMYYCARPPYGKDAMDYWGQGTSVTVSS
VL: QIVLTQSPAIMSASPGEKVTMTCSASSSVSYMHWYQQKSGTSPKRWISDTSKLASGVPARFSGSGSGTSYSLTISSMEAEDAATYYCQQWSSNPPTFGGGTKLEIK
notes: Hybridoma monoclonal antibody, captured on anti-mouse Fc in Biacore; also called Protein 130 RAGE-1
As for B3, in assay [1], binding was characterised by a dissociation constant (Kd) of 0.236 nM, the koff worked out at 0.00136 s⁻¹ and the on-rate (kon) came out at 5.76e+06 M⁻¹ s⁻¹.

B4: 95 RAGE-1 (antibody, V domains shown)
VH: QVQLQQPGAELVKPGASVKLSCKASGYTFTSYWMHWVKQRPGQGLEWIGESNPSNGRTNYNEKFKNKATLTVDKSSSTAYMQLSSLTSEDSAVYYCARAPYYGFDYWGQGTTLTVSS
VL: QAVVTQESALTTSPGETVTLTCRSSTGAVTTSNYANWVQEKPDHLFTGLTGGTNNRAPGVPARFSGSLIGDKAALTITGAQTEDEAIYFCALWYSNHWVFGGGTKLTVL
notes: Hybridoma monoclonal antibody, captured on anti-mouse Fc in Biacore; also called Protein 95 RAGE-1
In assay [1], B4 came in with a Kd of 0.462 nM, a dissociation rate constant (koff) of 0.00123 s⁻¹ and a kon of 2.66e+06 M⁻¹ s⁻¹.

B5: 140 RAGE-1 (antibody, V domains shown)
VH: QVQLQQPGAELVKPGASVRLSCKASGYTFTSYWMHWVKQRPGQGLEWIGEINPSNGRTNYNEKFKSKATLTVDKSSSTAYMQLSSLTSEDSAVYYCARDGLGYRPIAMDYWGQGTSVTVSS
VL: QIVLTQSPAIMSASPGEKVTISCSASSSVSYMYWYQQKPGSSPKPWIYRTSNLASGVPARFSGSGSGTSYSLTISSMEAEDAATYYCQQYHSYPPMYTFGGGTKLEIK
notes: Hybridoma monoclonal antibody, captured on anti-mouse Fc in Biacore; also called Protein 140 RAGE-1
In assay [1], B5 yielded a Kd of 0.303 nM, an off-rate constant (koff) of 0.00157 s⁻¹ and a kon of 5.19e+06 M⁻¹ s⁻¹.
